Assay results reported in the supplement of paper PMC9112550, “Optimization of the antimicrobial peptide Bac7 by deep mutational scanning” (BMC Biology, 2022).

Each sequence was assayed on Escherichia coli TOP10 (assay: shrunken log2 fold change of peptide-encoding DNA abundance (4.5 h post-induction vs induction); higher = less antimicrobial activity (less host growth inhibition)). Conditions: time post-induction: 4.5 h; library: site-saturation at positions 5, 18, 19, 20.
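Further: peptides expressed intracellularly from a pBAD plasmid library in pooled LB shake-flask culture, induced with 0.3% L-arabinose, DNA abundance read by NGS, three biological replicates, DESeq2 with apeglm shrinkage.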

| Sequence | shrunken log2 fold change |
| --- | --- |
| RRIRERPPRLPRPRPRPHTRPRP | -0.0821 |
| RRIRGRPPRLPRPRPRPHSMPRP | 0.0488 |
| RRIRVRPPRLPRPRPRPPSQPRP | 0.125 |
| RRIRVRPPRLPRPRPRPVLPPRP | 0.0268 |
| RRIRSRPPRLPRPRPRPMNRPRP | -0.378 |
| RRIRCRPPRLPRPRPRPSLFPRP | -0.293 |
| RRIRVRPPRLPRPRPRPGPDPRP | 0.465 |
| RRIRDRPPRLPRPRPRPMLEPRP | 0.358 |
| RRIRTRPPRLPRPRPRPVSHPRP | -0.265 |
| RRIRRRPPRLPRPRPRPHGKPRP | 0.0359 |
| RRIRTRPPRLPRPRPRPFDTPRP | -0.346 |
| RRIRNRPPRLPRPRPRPLNAPRP | -0.662 |
| RRIRARPPRLPRPRPRPRAVPRP | 1.11 |
| RRIRFRPPRLPRPRPRPVLKPRP | -0.24 |
| RRIRSRPPRLPRPRPRPCTTPRP | -0.135 |
| RRIRRRPPRLPRPRPRPLHFPRP | 0.397 |
| RRIRARPPRLPRPRPRPCQHPRP | -0.274 |
| RRIRKRPPRLPRPRPRPLPIPRP | 0.143 |
| RRIRARPPRLPRPRPRPNDKPRP | -0.129 |
| RRIRWRPPRLPRPRPRPNHDPRP | -0.193 |
| RRIRCRPPRLPRPRPRPSVLPRP | 0.0648 |
| RRIRERPPRLPRPRPRPCNAPRP | -0.0483 |
| RRIRARPPRLPRPRPRPPSIPRP | -0.108 |
| RRIRERPPRLPRPRPRPIPIPRP | -0.027 |
| RRIRQRPPRLPRPRPRPFPGPRP | 0.115 |

| Sequence | shrunken log2 fold change |
| --- | --- |
| RRIRRRPPRLPRPRPRPVQNPRP | 0.285 |
| RRIRSRPPRLPRPRPRPETSPRP | 0.358 |
| RRIRARPPRLPRPRPRPDRFPRP | 0.414 |
| RRIRKRPPRLPRPRPRPNWCPRP | -0.0436 |
| RRIRIRPPRLPRPRPRPNIHPRP | -0.936 |
| RRIRWRPPRLPRPRPRPITGPRP | 0.047 |
| RRIRRRPPRLPRPRPRPQQGPRP | 0.0446 |
| RRIRLRPPRLPRPRPRPRMAPRP | 0.39 |
| RRIRPRPPRLPRPRPRPEMNPRP | -0.381 |
| RRIRYRPPRLPRPRPRPYNTPRP | -1.88 |
| RRIRRRPPRLPRPRPRPNPQPRP | 0.631 |
| RRIRQRPPRLPRPRPRPYRKPRP | -0.0156 |
| RRIRMRPPRLPRPRPRPVAKPRP | 1.43 |
| RRIRPRPPRLPRPRPRPKWQPRP | 0.225 |
| RRIRVRPPRLPRPRPRPPCDPRP | 0.52 |
| RRIRARPPRLPRPRPRPDWMPRP | 0.383 |
| RRIRPRPPRLPRPRPRPAIKPRP | -0.339 |
| RRIRIRPPRLPRPRPRPGPRPRP | 0.358 |
| RRIRYRPPRLPRPRPRPVSQPRP | -0.303 |
| RRIRERPPRLPRPRPRPLQWPRP | 0.499 |
| RRIRWRPPRLPRPRPRPVSSPRP | 0.117 |
| RRIRQRPPRLPRPRPRPSYLPRP | -0.482 |
| RRIRERPPRLPRPRPRPILTPRP | -0.337 |
| RRIRNRPPRLPRPRPRPNKHPRP | -0.528 |
| RRIRKRPPRLPRPRPRPYYWPRP | -0.281 |

| Sequence | shrunken log2 fold change |
| --- | --- |
| RRIRYRPPRLPRPRPRPGLWPRP | 0.032 |
| RRIRMRPPRLPRPRPRPQCFPRP | 0.275 |
| RRIRYRPPRLPRPRPRPINMPRP | -0.281 |
| RRIRGRPPRLPRPRPRPTQHPRP | 0.855 |
| RRIRPRPPRLPRPRPRPKWGPRP | 0.0577 |
| RRIRQRPPRLPRPRPRPAKKPRP | -0.0522 |
| RRIRLRPPRLPRPRPRPNCEPRP | -0.0439 |
| RRIRTRPPRLPRPRPRPNEIPRP | -0.128 |
| RRIRNRPPRLPRPRPRPEVEPRP | 0.154 |
| RRIRTRPPRLPRPRPRPKLVPRP | 0.016 |
| RRIRERPPRLPRPRPRPICSPRP | -0.0316 |
| RRIRGRPPRLPRPRPRPMGAPRP | 0.821 |
| RRIRLRPPRLPRPRPRPTMLPRP | -0.335 |
| RRIRQRPPRLPRPRPRPNEHPRP | -0.0963 |
| RRIRPRPPRLPRPRPRPMGFPRP | -0.0125 |
| RRIRWRPPRLPRPRPRPEAQPRP | 0.779 |
| RRIRIRPPRLPRPRPRPGNYPRP | -0.261 |
| RRIRPRPPRLPRPRPRPEIPPRP | 0.0702 |
| RRIRTRPPRLPRPRPRPELYPRP | -0.258 |
| RRIRYRPPRLPRPRPRPVPQPRP | -0.0271 |
| RRIRTRPPRLPRPRPRPPQPPRP | 0.154 |
| RRIRTRPPRLPRPRPRPDMFPRP | -0.0274 |
| RRIRPRPPRLPRPRPRPKGSPRP | 0.0684 |
| RRIRLRPPRLPRPRPRPIGEPRP | -0.169 |
| RRIRKRPPRLPRPRPRPFAQPRP | 0.177 |
